Source: patent US20250066499A1 (SUNSHINE GUOJIAN PHARMACEUTICAL SHANGHAI, published 2025)

Columns and labels:
[1] = molecular target: T1, CD73-ND-N187A (human, UniProt P21589 27-317); experiment: ELISA, high plateau value (OD 450 nm)
T1 construct: Alanine mutant of CD73-ND
T1 sequence: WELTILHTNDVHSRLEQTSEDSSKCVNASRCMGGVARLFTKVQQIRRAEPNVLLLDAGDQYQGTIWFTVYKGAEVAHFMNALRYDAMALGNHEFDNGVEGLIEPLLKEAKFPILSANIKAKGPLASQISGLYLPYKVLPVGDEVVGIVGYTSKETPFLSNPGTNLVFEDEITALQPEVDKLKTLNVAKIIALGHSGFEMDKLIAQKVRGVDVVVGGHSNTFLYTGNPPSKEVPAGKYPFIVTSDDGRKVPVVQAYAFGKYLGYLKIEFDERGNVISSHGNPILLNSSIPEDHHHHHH
Procedure: (§1) The ELISA plates were coated with SA protein diluted to 1.5 μg/mL in coating buffer (50 mM carbonate coating buffer, pH 9.6) and incubated overnight at 4° C. The supernatant was discarded, and the plates were washed three times with PBST. Then, 5% skimmed milk powder prepared with PBS was added for blocking and the plates were incubated for 2 h at 37° C. After washing the plates once with PBST, CD73-biotin protein (prepared by biotinylating CD73-His protein according to the EZ-Link NHS-Biotin Reagent instructions) was diluted to 0.5 μg/mL and added at 100 μL/well for incubation at room temperature for 1 h. The plates were washed three times with PBST, and the prepared murine-derived monoclonal antibodies against human CD73 were serially diluted with 1% BSA buffer prepared with PBST and added to the ELISA plates at 100 μl/well. The plates were incubated at 37° C. for 1 h. After washing the plates three times with PBST, HRP-labeled goat anti-mouse IgG secondary antibody was added and the plates were incubated for 30 min at 37° C. After washing the plates three times with PBST, the residual droplets were patted dry on absorbent paper as much as possible. Then, 100 μl of TMB color developing solution was added to each well, and the plates were incubated in the dark at room temperature for 5 min for color development. Subsequently, 50 μl of 2M H₂SO₄ stop solution was added to each well to terminate the substrate reaction. The OD values were read at 450 nm using a multimode microplate reader to analyze the binding ability of the tested antibodies to the target antigen human CD73-His.
(§2) Referring to the experimental method in Example 3, the affinity of 48A11-HuV33 for various mutant proteins of CD73-ND was determined. The SA protein was diluted to 1 μg/mL for coating the ELISA plates, and the biotinylated CD73 protein (CD73-biotin) was used at a concentration of 0.1 μg/mL.

[2] = molecular target: T2, CD73-ND-V140A (human, UniProt P21589 27-317); experiment: ELISA, biotinylated antigen on streptavidin plate
T2 construct: Alanine mutant of CD73-ND
T2 sequence: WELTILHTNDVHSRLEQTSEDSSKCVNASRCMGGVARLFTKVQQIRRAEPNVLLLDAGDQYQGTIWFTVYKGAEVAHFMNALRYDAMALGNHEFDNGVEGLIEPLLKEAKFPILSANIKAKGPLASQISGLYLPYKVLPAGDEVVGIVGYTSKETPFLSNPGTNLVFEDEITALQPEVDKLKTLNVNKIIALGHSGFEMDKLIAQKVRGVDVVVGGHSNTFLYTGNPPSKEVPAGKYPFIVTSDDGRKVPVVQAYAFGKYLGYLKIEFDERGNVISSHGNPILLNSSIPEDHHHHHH
Procedure: as §1, §2

[3] = molecular target: T3, CD73-ND-D142A (human, UniProt P21589 27-317); experiment: ELISA, biotinylated antigen on streptavidin plate
T3 construct: Alanine mutant of CD73-ND
T3 sequence: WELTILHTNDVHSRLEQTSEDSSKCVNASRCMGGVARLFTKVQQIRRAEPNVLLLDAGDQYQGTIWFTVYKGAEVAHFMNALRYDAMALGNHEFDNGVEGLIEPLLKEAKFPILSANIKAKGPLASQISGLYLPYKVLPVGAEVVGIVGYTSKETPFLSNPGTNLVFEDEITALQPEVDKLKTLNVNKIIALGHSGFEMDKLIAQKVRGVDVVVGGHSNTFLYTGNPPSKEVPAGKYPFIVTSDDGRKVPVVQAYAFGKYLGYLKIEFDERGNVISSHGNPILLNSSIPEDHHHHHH
Procedure: as §1, §2

[4] = molecular target: T4, CD73-ND-L184A (human, UniProt P21589 27-317); experiment: ELISA, biotinylated antigen on streptavidin plate
T4 construct: Alanine mutant of CD73-ND
T4 sequence: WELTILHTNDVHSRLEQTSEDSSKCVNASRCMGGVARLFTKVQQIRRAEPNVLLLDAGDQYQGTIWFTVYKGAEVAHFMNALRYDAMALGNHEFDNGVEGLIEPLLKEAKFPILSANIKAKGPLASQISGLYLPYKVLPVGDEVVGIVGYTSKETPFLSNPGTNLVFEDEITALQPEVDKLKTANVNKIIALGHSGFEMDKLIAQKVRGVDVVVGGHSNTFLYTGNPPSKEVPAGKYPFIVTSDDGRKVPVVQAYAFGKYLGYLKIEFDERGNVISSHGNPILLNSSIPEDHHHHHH
Procedure: as §1, §2

[5] = molecular target: T5, CD73-ND-P139A (human, UniProt P21589 27-317); experiment: ELISA, biotinylated antigen on streptavidin plate
T5 construct: Alanine mutant of CD73-ND
T5 sequence: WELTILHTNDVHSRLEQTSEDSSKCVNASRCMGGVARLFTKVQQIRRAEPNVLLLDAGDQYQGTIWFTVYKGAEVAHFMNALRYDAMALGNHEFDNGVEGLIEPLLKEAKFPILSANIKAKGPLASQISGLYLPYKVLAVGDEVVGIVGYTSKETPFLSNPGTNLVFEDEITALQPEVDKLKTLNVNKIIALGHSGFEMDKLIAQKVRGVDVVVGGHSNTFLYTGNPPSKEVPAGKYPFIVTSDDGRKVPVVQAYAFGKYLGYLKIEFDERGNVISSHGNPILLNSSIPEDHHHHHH
Procedure: as §1, §2

[6] = molecular target: T6, CD73-ND-his (human, UniProt P21589 27-317); experiment: ELISA, biotinylated antigen on streptavidin plate
T6 construct: Biotinylated and captured on streptavidin in the ELISA
T6 sequence: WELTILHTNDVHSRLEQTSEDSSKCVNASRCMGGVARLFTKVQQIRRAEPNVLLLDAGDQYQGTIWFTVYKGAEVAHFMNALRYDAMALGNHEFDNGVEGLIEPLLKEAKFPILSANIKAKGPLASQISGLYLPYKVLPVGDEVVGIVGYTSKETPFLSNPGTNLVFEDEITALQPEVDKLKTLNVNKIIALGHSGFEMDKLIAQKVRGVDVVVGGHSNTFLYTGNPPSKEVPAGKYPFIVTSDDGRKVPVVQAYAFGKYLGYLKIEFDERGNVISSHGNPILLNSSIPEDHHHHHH
Procedure: as §1, §2

B1: 48A11-HuV33 (antibody, human IgG4, V domains shown)
VH: QVQLVQSGAEVKKPGASVKVSCKASGYTFTSYWMHWVRQAPGQGLEWIGEINPSIGRTNYNEKFKSRVTLTRDTSTSTAYMELSSLRSEDTAVYYCARRVYGTMDYWGQGTLVTVSS
VL: DIQMTQSPSSLSASVGDRVTITCKASQDINSYLSWFQQKPGKSPKLLIYRANIWVDGVPSRFSGSGSGQDYTFTISSLQPEDIATYYCLQYDELYTFGQGTKVEIK
notes: Humanized
- Top [1]: 1.77
- EC50 [2]: 98 pM
- EC50 [3]: 344 pM
- EC50 [4]: 612 pM
- EC50 [5]: 4340 pM
- EC50 [6]: 178 pM
